Reference: the supplement of paper PMC10126150
± gives the standard deviation of the averaged measurements.

System: ATP
Assay: switch fluorescence ratio, 500 uM ATP over buffer (Cy3 cluster intensity, sum of 5 cycles each) (fold (ratio)); higher = stronger signal-on switching upon ATP binding; sequences stand for … in TCGTCGGCAGCGTCAGATGTGTATAAGAGACAGTTTTTTTTTTTTTTTTTTTTTTTTT…TC
Settings: aptamer strand: ATP DNA aptamer (quencher-CACCTGGGGGAGTATTGCGGAGGAAGG + anchor), 100 nM annealed; ATP concentration: 500 uM
In short: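 After annealing to 100 nM quencher-labelled ATP aptamer, Cy3-labelled switching-strand clusters on a modified Illumina MiSeq flow-cell were imaged in selection buffer. A second image followed after 15 min with 500 uM ATP at 22 °C, and five such buffer/ATP cycles were done, each separated by NaOH stripping and re-annealing. The fluorescence ratio, averaged per switch-domain sequence, is summed target-cycle over summed buffer-cycle Cy3 intensity per cluster, with clusters outside 100-1000 RFU excluded.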
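Note: ATP exposure 15 min at 22 °C before imaging.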

TAAATTATTT
switch fluorescence ratio: 0.999 ± 0.023

GGGAATAATG
switch fluorescence ratio: 1.01 ± 0.0091

TACGTGCTTG
switch fluorescence ratio: 0.989 ± 0.03

GGTGATCTTT
switch fluorescence ratio: 0.965 ± 0.044

TCATTTCGCC
switch fluorescence ratio: 1.071 ± 0.0047

GATGTGGGGT
switch fluorescence ratio: 0.987 ± 0.012

ATGGGATACT
switch fluorescence ratio: 1.03 ± 0.033

CGCTAAAGGG
switch fluorescence ratio: 1.042 ± 0.0042

GCGGTTGTCC
switch fluorescence ratio: 1.0001 ± 0.00078

AGGACGCGAC
switch fluorescence ratio: 1.548 ± 0.014

AGAAGTACTA
switch fluorescence ratio: 1.22 ± 0.036

GTCTGAGGGG
switch fluorescence ratio: 0.9965 ± 0.0061

GGGATGGTTA
switch fluorescence ratio: 0.971 ± 0.056

TTTATGTTCG
switch fluorescence ratio: 0.99 ± 0.02

GATCTCAGTT
switch fluorescence ratio: 1.02 ± 0.036

TTATATTGGG
switch fluorescence ratio: 1 ± 0.033

GGGGGGTGG
switch fluorescence ratio: 0.9912 ± 0.0055

GATGGGTTTG
switch fluorescence ratio: 0.991 ± 0.028

CCATTAAACT
switch fluorescence ratio: 1.014 ± 0.008

GGAGCTTTGG
switch fluorescence ratio: 0.998 ± 0.035

CGTTTTATCT
switch fluorescence ratio: 1.03 ± 0.025

CAGTTTTATC
switch fluorescence ratio: 1.012 ± 0.0039

AAGGGCCCAA
switch fluorescence ratio: 1.004 ± 0.0074

TTGGGTGTTG
switch fluorescence ratio: 0.997 ± 0.037

TTGCCTGTTT
switch fluorescence ratio: 0.967 ± 0.049

AATGAAAAAC
switch fluorescence ratio: 1.007 ± 0.0054

CGAAAGATGA
switch fluorescence ratio: 0.982 ± 0.019

TCTGAGCGGC
switch fluorescence ratio: 0.9349 ± 0.0037

CTTGTCATCG
switch fluorescence ratio: 0.993 ± 0.037

GGGCCGGGGC
switch fluorescence ratio: 1.01 ± 0.024

CAGTAGTGTC
switch fluorescence ratio: 0.985 ± 0.041

CTCGGGGGGG
switch fluorescence ratio: 0.998 ± 0.028

GCTTCCTCTA
switch fluorescence ratio: 1.74 ± 1

CAGAGGGACT
switch fluorescence ratio: 1.01 ± 0.023

AAGGGTATTT
switch fluorescence ratio: 1.01 ± 0.028

TTTTGCCATT
switch fluorescence ratio: 0.999 ± 0.035

TGCATTTTAC
switch fluorescence ratio: 1.28 ± 0.082

TATAATTCTA
switch fluorescence ratio: 0.9844 ± 0.0075

ATAGAGGAGA
switch fluorescence ratio: 0.992 ± 0.048

CGGATGTTCA
switch fluorescence ratio: 1.001 ± 0.0059

CATATAATTC
switch fluorescence ratio: 0.975 ± 0.042

TAGTTACACG
switch fluorescence ratio: 1.01 ± 0.025

ATTTTTTTCT
switch fluorescence ratio: 1.04 ± 0.04

GCTTTAATAA
switch fluorescence ratio: 0.991 ± 0.077

GCTATTGCGG
switch fluorescence ratio: 1.028 ± 0.0042

TAGTATTACC
switch fluorescence ratio: 0.9943 ± 0.0081

TTTGAGAAGG
switch fluorescence ratio: 0.948 ± 0.022

CCATGGTTAT
switch fluorescence ratio: 1.026 ± 0.0034

GCGCGGAACG
switch fluorescence ratio: 0.998 ± 0.047

CTGACCTGTA
switch fluorescence ratio: 1.093 ± 0.0021

ACTAAATAGT
switch fluorescence ratio: 0.987 ± 0.013

CTAAAGGTTC
switch fluorescence ratio: 1.05 ± 0.05

TGTGTCCTAA
switch fluorescence ratio: 1.03 ± 0.026

CGTTCTAATT
switch fluorescence ratio: 1.01 ± 0.024

GTGTGGAGGT
switch fluorescence ratio: 0.964 ± 0.016

CGGTGGGGAT
switch fluorescence ratio: 1.02 ± 0.046

GGGCATTTTT
switch fluorescence ratio: 0.9824 ± 0.0041

GCTTTAGTCA
switch fluorescence ratio: 0.967 ± 0.034

GGTTACTGTT
switch fluorescence ratio: 1.08 ± 0.096

TTAAGATAGG
switch fluorescence ratio: 1.01 ± 0.025

GGGTTTTTGA
switch fluorescence ratio: 1.02 ± 0.024

GTGGGGCCGA
switch fluorescence ratio: 1.01 ± 0.031

TGGGCAATTT
switch fluorescence ratio: 1.09 ± 0.036

AGGGGTACTT
switch fluorescence ratio: 1 ± 0.049

TTAAGGATAC
switch fluorescence ratio: 1.15 ± 0.21

GGCAGTGCGG
switch fluorescence ratio: 1 ± 0.06

ATTTCATGG
switch fluorescence ratio: 0.97 ± 0.057

AGGGGGGAAT
switch fluorescence ratio: 1.03 ± 0.048

ACTAATGCGC
switch fluorescence ratio: 1.05 ± 0.019

CAGTAACTGT
switch fluorescence ratio: 1.02 ± 0.027

ATCAATGTGC
switch fluorescence ratio: 0.962 ± 0.088

ATTTAGTCGA
switch fluorescence ratio: 0.9519 ± 0.001

ACGTTCGGCG
switch fluorescence ratio: 0.9968 ± 0.0021

ATTCGTCATA
switch fluorescence ratio: 1.04 ± 0.075

CCCCTTGGGG
switch fluorescence ratio: 1.036 ± 0.0031

ACGATGGCTG
switch fluorescence ratio: 1.04 ± 0.015

AGAGCGGGCT
switch fluorescence ratio: 1.04 ± 0.036

CGTGCTGGAA
switch fluorescence ratio: 0.975 ± 0.045

TACGGATACT
switch fluorescence ratio: 1.27 ± 0.026

GAATAAGGTA
switch fluorescence ratio: 0.993 ± 0.011

TTTTCCGTGG
switch fluorescence ratio: 1.01 ± 0.069

TTCCACCAAA
switch fluorescence ratio: 1.07 ± 0.033

TTGTTAATAT
switch fluorescence ratio: 1 ± 0.035

TCCAAGTCGA
switch fluorescence ratio: 1.041 ± 0.0033

AGCGGGTCGG
switch fluorescence ratio: 1 ± 0.021

TTGTTGGTGC
switch fluorescence ratio: 1.09 ± 0.014

GTGGAGTTTG
switch fluorescence ratio: 0.999 ± 0.012

AACGGTATTC
switch fluorescence ratio: 1.07 ± 0.043

CAGACCAGCT
switch fluorescence ratio: 1.02 ± 0.036

AAATGAGATT
switch fluorescence ratio: 1.002 ± 0.0048

AGGACGCTGG
switch fluorescence ratio: 0.9449 ± 0.0088

ATTTTACTAA
switch fluorescence ratio: 1.05 ± 0.021

ATGTTGATAC
switch fluorescence ratio: 1.07 ± 0.0013

GGGAATTGTT
switch fluorescence ratio: 0.977 ± 0.014

TTTTTTATTG
switch fluorescence ratio: 0.989 ± 0.029

TTTGCTCTTA
switch fluorescence ratio: 1 ± 0.056

AGCGGAAGAA
switch fluorescence ratio: 1.02 ± 0.024

TTGATTCATT
switch fluorescence ratio: 1.01 ± 0.025

GGTAAAATTT
switch fluorescence ratio: 1 ± 0.03

GTGATCAAGC
switch fluorescence ratio: 0.984 ± 0.028

TATATGGTCC
switch fluorescence ratio: 0.9841 ± 0.0083

TCGTGGGGTT
switch fluorescence ratio: 1.02 ± 0.012

AGGGATAAGC
switch fluorescence ratio: 0.988 ± 0.021

CAGGTCTTTC
switch fluorescence ratio: 1.02 ± 0.021

AATCTTCTTA
switch fluorescence ratio: 1.001 ± 0.0034

CGGGCGTGCC
switch fluorescence ratio: 0.966 ± 0.014

CGGGGGGCCG
switch fluorescence ratio: 0.995 ± 0.01

CCTTGATCTG
switch fluorescence ratio: 1.06 ± 0.02

AAGTTAATTC
switch fluorescence ratio: 1.013 ± 0.0081

GGGGAAACGT
switch fluorescence ratio: 1.12 ± 0.035

ATGCAAGGTC
switch fluorescence ratio: 1.12 ± 0.049

AGTTTTGGTC
switch fluorescence ratio: 1.002 ± 0.0056

GGGTTCGGGG
switch fluorescence ratio: 1 ± 0.056

TAAGCTGGCT
switch fluorescence ratio: 1.025 ± 0.0092

TAATCAGGTA
switch fluorescence ratio: 1.1 ± 0.02

CGGGAGCAGG
switch fluorescence ratio: 1.09 ± 0.014

ATGCATATGG
switch fluorescence ratio: 1.03 ± 0.013

GAGGGGCTGT
switch fluorescence ratio: 0.981 ± 0.038

ATGGGGGATC
switch fluorescence ratio: 1.008 ± 0.0082

AGTCATCGGC
switch fluorescence ratio: 1.01 ± 0.056

CTGGGGCGGA
switch fluorescence ratio: 0.983 ± 0.052

CGAGAAGAGA
switch fluorescence ratio: 1.01 ± 0.013

GGGGGAGGT
switch fluorescence ratio: 0.986 ± 0.038

AGATTGGGCT
switch fluorescence ratio: 0.997 ± 0.03

GGACTAGAGC
switch fluorescence ratio: 1.01 ± 0.069

TAAAGGAAAA
switch fluorescence ratio: 1.01 ± 0.015

GGGAAGCATT
switch fluorescence ratio: 0.989 ± 0.023

TGAGCGAAGG
switch fluorescence ratio: 0.9807 ± 0.0057

CGTTAATACT
switch fluorescence ratio: 2.98 ± 0.045

CCAGCCTTTT
switch fluorescence ratio: 1.025 ± 0.0039

GTTAGGCCCT
switch fluorescence ratio: 1 ± 0.014

GGGGTCAGTG
switch fluorescence ratio: 0.998 ± 0.054

GAGCGGATTT
switch fluorescence ratio: 1.03 ± 0.019

GATGCTAGAC
switch fluorescence ratio: 3 ± 0.11

CGTATTGGGC
switch fluorescence ratio: 0.9577 ± 0.0065

TTACGTTTC
switch fluorescence ratio: 1 ± 0.034

CGGGCTGGGT
switch fluorescence ratio: 0.987 ± 0.057

GCAGTATGGG
switch fluorescence ratio: 1 ± 0.028

TCAGACTGCG
switch fluorescence ratio: 0.999 ± 0.023

AAGGTTAAGT
switch fluorescence ratio: 1.02 ± 0.016

AGACATATTT
switch fluorescence ratio: 1 ± 0.027

AGGCGGATGT
switch fluorescence ratio: 0.978 ± 0.016

TATTTATAAA
switch fluorescence ratio: 0.998 ± 0.025

GGTCAAGCTG
switch fluorescence ratio: 1 ± 0.044

TAAGGGGGGC
switch fluorescence ratio: 0.98 ± 0.029

AATTTGTTGG
switch fluorescence ratio: 0.996 ± 0.017

GGGCGGGGGG
switch fluorescence ratio: 1.01 ± 0.03

ATAAGACCGT
switch fluorescence ratio: 1.015 ± 0.0046

ATCGCCATCC
switch fluorescence ratio: 1.235 ± 0.0026

CGGATGGAGG
switch fluorescence ratio: 0.988 ± 0.042

CGAAATCGTG
switch fluorescence ratio: 0.9964 ± 0.0047

CATTCTATGC
switch fluorescence ratio: 1.03 ± 0.011

ATTGTTGGTG
switch fluorescence ratio: 0.986 ± 0.024

CTGCGTCTAA
switch fluorescence ratio: 1.03 ± 0.027

TGAGCGGGGG
switch fluorescence ratio: 0.996 ± 0.021

TTTATTCCGG
switch fluorescence ratio: 1 ± 0.01

AGTTAGTTGT
switch fluorescence ratio: 1 ± 0.028

AATGTGGTCT
switch fluorescence ratio: 0.994 ± 0.021

TTTTAATGGT
switch fluorescence ratio: 1.02 ± 0.03

ACAAATATAT
switch fluorescence ratio: 1.17 ± 0.081

CTCACTGCAT
switch fluorescence ratio: 1.46 ± 0.11

TTTATTGCTA
switch fluorescence ratio: 1.01 ± 0.034

GTATTAAAAG
switch fluorescence ratio: 1 ± 0.049

TACGGTCCTG
switch fluorescence ratio: 0.99156 ± 0.00092

TGGCGGCTGG
switch fluorescence ratio: 0.996 ± 0.018

TGCGACAGTT
switch fluorescence ratio: 1.006 ± 0.0029

TTTAAGACAA
switch fluorescence ratio: 0.9892 ± 0.0025

TGGAAGTGAG
switch fluorescence ratio: 0.969 ± 0.055

CCTATGCGGT
switch fluorescence ratio: 2.6 ± 0.067

TACGAGTTAA
switch fluorescence ratio: 0.97 ± 0.015

GTTAGACGGT
switch fluorescence ratio: 1.02 ± 0.041

ATATCATCGG
switch fluorescence ratio: 0.964 ± 0.025

GAGGTGGTGC
switch fluorescence ratio: 0.966 ± 0.072

AGGCTGCATG
switch fluorescence ratio: 1.01 ± 0.021

AACCATACGT
switch fluorescence ratio: 1.29 ± 0.032

AGGATGAGGT
switch fluorescence ratio: 0.978 ± 0.057

GGGAAAAAGG
switch fluorescence ratio: 0.983 ± 0.029

CGGGGGGGTG
switch fluorescence ratio: 1.03 ± 0.096

ATACTCAACA
switch fluorescence ratio: 1.248 ± 0.0099

TCCCGGGTAT
switch fluorescence ratio: 0.9787 ± 0.0073

CGGGTCCAGC
switch fluorescence ratio: 1.01 ± 0.033

TGGTATGTAG
switch fluorescence ratio: 1.02 ± 0.031

CGATATGTTC
switch fluorescence ratio: 1.01 ± 0.018

ATCGGGGTAG
switch fluorescence ratio: 0.9985 ± 0.0038

CCGTGGAAAG
switch fluorescence ratio: 1.02 ± 0.027

ATGGTCCGAG
switch fluorescence ratio: 0.998 ± 0.018

GGGGTCGGTA
switch fluorescence ratio: 0.9893 ± 0.0032

CGGGGGCTGT
switch fluorescence ratio: 0.964 ± 0.0037

TAAGAAGTCG
switch fluorescence ratio: 0.9751 ± 0.0023

GTGCAGGTGC
switch fluorescence ratio: 1.37 ± 0.026

CATATTCAAT
switch fluorescence ratio: 1 ± 0.015

TGTTGTAGCT
switch fluorescence ratio: 1.02 ± 0.031

TGGGGAGAGC
switch fluorescence ratio: 0.992 ± 0.019

AAACTGGAG
switch fluorescence ratio: 1.04 ± 0.053

GTGGCTGGGG
switch fluorescence ratio: 1 ± 0.029

TAATGCAATT
switch fluorescence ratio: 1.018 ± 0.0064

GAGAAGAGGG
switch fluorescence ratio: 1.04 ± 0.042

GGGGCGGTCT
switch fluorescence ratio: 0.9667 ± 0.004

TTTTGTGGGT
switch fluorescence ratio: 0.986 ± 0.022

AACATTTTTT
switch fluorescence ratio: 0.99 ± 0.019
